We go through 19 molecules from patent US20240270821A1, “GIP/GLP1/GCG TRI-RECEPTOR AGONISTS AND USES THEREOF” (priority 2023, published 2024).

Holding throughout (assay): cell-based or functional assay
For assay [1], the target named is T1, human GIP receptor (human) (UniProt P48546).
T1 sequence (looked up): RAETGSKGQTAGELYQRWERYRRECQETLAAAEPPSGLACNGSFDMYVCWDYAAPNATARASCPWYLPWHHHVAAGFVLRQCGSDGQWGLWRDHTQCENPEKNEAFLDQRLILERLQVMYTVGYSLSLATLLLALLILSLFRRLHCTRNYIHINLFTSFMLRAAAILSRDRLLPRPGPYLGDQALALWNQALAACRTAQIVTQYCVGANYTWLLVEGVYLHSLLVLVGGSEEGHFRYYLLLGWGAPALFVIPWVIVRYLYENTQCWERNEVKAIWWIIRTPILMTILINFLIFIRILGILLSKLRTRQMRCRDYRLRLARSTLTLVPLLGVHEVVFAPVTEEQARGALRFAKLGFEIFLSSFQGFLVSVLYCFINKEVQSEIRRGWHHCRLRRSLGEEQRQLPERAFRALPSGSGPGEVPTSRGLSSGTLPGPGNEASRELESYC

For assay [2], the target named is hGLP-1R (Homo sapiens, UniProt P43220).
Sequence of hGLP-1R (P43220 24-463): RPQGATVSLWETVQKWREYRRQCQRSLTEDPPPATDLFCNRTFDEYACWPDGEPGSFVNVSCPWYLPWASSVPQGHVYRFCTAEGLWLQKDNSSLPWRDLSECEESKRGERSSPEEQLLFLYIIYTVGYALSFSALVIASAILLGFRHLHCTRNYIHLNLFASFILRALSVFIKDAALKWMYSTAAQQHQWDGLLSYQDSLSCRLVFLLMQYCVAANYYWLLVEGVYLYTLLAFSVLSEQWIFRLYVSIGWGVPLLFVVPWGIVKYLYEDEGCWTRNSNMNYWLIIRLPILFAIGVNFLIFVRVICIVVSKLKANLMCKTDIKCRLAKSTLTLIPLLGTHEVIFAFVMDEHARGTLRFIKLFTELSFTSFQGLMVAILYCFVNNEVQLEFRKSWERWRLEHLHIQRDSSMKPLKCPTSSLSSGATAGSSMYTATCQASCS
The target of assay [3] is human glucagon receptor (human) (UniProt P47871).
Sequence of human glucagon receptor (human) (P47871 26-477): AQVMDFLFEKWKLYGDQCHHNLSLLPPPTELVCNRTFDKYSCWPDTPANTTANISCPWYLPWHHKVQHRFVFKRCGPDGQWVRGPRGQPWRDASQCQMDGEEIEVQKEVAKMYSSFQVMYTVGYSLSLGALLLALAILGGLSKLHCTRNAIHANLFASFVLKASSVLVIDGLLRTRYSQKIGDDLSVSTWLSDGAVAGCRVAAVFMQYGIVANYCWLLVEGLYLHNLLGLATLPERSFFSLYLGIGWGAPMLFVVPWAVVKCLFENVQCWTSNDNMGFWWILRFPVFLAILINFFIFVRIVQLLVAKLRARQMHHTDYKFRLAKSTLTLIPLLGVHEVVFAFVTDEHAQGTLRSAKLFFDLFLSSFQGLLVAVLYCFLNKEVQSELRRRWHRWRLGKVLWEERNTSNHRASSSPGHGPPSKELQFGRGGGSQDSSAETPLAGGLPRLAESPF

Starred links: 1 amine or outer side, 2 acyl side, 3 side chain; linkers in the order of their positions; H or OH if unused. Non-standard residues stand in square brackets, D forms with d. Groups on a side chain read outwards from the residue. No end group written: not given here. *: point of attachment. C20 diacid = O=C(O)CCCCCCCCCCCCCCCCCCC(=O)*; αMePhe(2-F) = C[C@](N)(Cc1ccccc1F)C(=O)O; γGlu = O=C(O)[C@H](CCC(=O)[*:2])N[*:1]; NMeY = CN[C@@H](Cc1ccc(O)cc1)C(=O)O; αMeF = C[C@](N)(Cc1ccccc1)C(=O)O; αMeL = CC(C)C[C@](C)(N)C(=O)O; Orn = NCCC[C@H](N)C(=O)O; AEEA = NCCOCCOCC(=O)O; Aib = CC(C)(N)C(=O)O

As for Y[Aib]QGTFTSDYSK[αMeL]LDKK([AEEA-γGlu-C20 diacid])AQQAFIEYLIAGGPSSGAPPPSSE-NH2 [Example 322], the Relative cAMP EC50 in assay [1] was 0.264 nM; in assay [2] it was 0.394 nM; in assay [3], 5.41 nM. Also, the cAMP Rel EC50 (1% HSA) in assay [1] stood at 89.3 nM; in assay [2], 135 nM; in assay [3], 2620 nM.

Regarding Y[Aib]QGTFTSDYSKLLDKK([AEEA-γGlu-C20 diacid])AQ[Aib]AFVQWLIEGGPSSGEPPPSEG-NH2 [Example 316], the Relative cAMP EC50 was found to be 0.259 nM in assay [1], 0.362 nM in assay [2] and 5.22 nM in assay [3]. Also, the cAMP Rel EC50 (1% HSA) is 102 nM in assay [1], 78.7 nM in assay [2] and 2090 nM in assay [3].

On to Y[Aib]QGTFTSDYSI[αMeL]LDKK([AEEA-γGlu-C20 diacid])AQRAFIEYLLEGGPSSGEPPPSG-NH2 (N-terminus assumed; SMILES CC[C@H](C)[C@H](NC(=O)[C@H](Cc1ccccc1)NC(=O)[C@H](C)NC(=O)[C@H](CCCNC(=N)N)NC(=O)[C@H](CCC(N)=O)NC(=O)[C@H](C)NC(=O)[C@H](CCCCNC(=O)COCCOCCNC(=O)CC[C@H](NC(=O)CCCCCCCCCCCCCCCCCCC(=O)O)C(=O)O)NC(=O)[C@H](CCCCN)NC(=O)[C@H](CC(=O)O)NC(=O)[C@H](CC(C)C)NC(=O)[C@](C)(CC(C)C)NC(=O)[C@@H](NC(=O)[C@H](CO)NC(=O)[C@H](Cc1ccc(O)cc1)NC(=O)[C@H](CC(=O)O)NC(=O)[C@H](CO)NC(=O)[C@@H](NC(=O)[C@H](Cc1ccccc1)NC(=O)[C@@H](NC(=O)CNC(=O)[C@H](CCC(N)=O)NC(=O)C(C)(C)NC(=O)[C@@H](N)Cc1ccc(O)cc1)[C@@H](C)O)[C@@H](C)O)[C@@H](C)CC)C(=O)N[C@@H](CCC(=O)O)C(=O)N[C@@H](Cc1ccc(O)cc1)C(=O)N[C@@H](CC(C)C)C(=O)N[C@@H](CC(C)C)C(=O)N[C@@H](CCC(=O)O)C(=O)NCC(=O)NCC(=O)N1CCC[C@H]1C(=O)N[C@@H](CO)C(=O)N[C@@H](CO)C(=O)NCC(=O)N[C@@H](CCC(=O)O)C(=O)N1CCC[C@H]1C(=O)N1CCC[C@H]1C(=O)N1CCC[C@H]1C(=O)N[C@@H](CO)C(=O)NCC(N)=O) [Example 313], for which the values for the Relative cAMP EC50 in assay [1], in assay [2] and in assay [3] were 0.49 nM, 0.304 nM and 4.11 nM, respectively. In addition, the results for the cAMP Rel EC50 (1% HSA) in assay [1], in assay [2] and in assay [3] were 86.4 nM, 135 nM and 3290 nM, respectively.

With Y[Aib]QGTFTSDYSI[αMeL]LDKQAAK([AEEA-AEEA-γGlu-C20 diacid])QFVEWLLA[Aib]GPSSGAPPPSEG-NH2 [Example 327], the Relative cAMP EC50 in assay [1] worked out at 0.312 nM; in assay [2], 1.61 nM; in assay [3], 3.04 nM. For the same molecule, the figures for the cAMP Rel EC50 (1% HSA) in assay [1], in assay [2] and in assay [3] were 63.3 nM, 473 nM and 1400 nM, respectively.

As to Y[Aib]QGT[αMePhe(2-F)]TSDYSILLDKAAQK[Orn]FIEYLIEGGPSSGEPPPSEG-NH2 (not fully specified (residue 20)) [Example 306], the results for the Relative cAMP EC50 in assay [1], in assay [2] and in assay [3] were 0.142 nM, 0.335 nM and 5.8 nM, respectively. Further, the cAMP Rel EC50 (1% HSA) in assay [1] turned out to be 95.3 nM; in assay [2] it was 126 nM; in assay [3], 2820 nM.

In the case of Y[Aib]QGTFTSDYSK[αMeL]LDKK([AEEA-γGlu-C20 diacid])AQQAFIQWLIEGGPSSGEPPPSEG-NH2 [Example 314], the Relative cAMP EC50 in assay [1] is 0.345 nM; in assay [2] it was 0.274 nM; in assay [3], 3.7 nM. Moreover, the figures for the cAMP Rel EC50 (1% HSA) in assay [1], in assay [2] and in assay [3] were 65.9 nM, 100 nM and 1030 nM, respectively.

With Y[Aib]QGTFTSDYSI[αMeL]LDKQAAK([AEEA-AEEA-γGlu-C20 diacid])QFVEWLLAGGPSSGEPPPGEG-NH2 [Example 320], the figures for the Relative cAMP EC50 in assay [1], in assay [2] and in assay [3] were 0.274 nM, 2.58 nM and 6.87 nM, respectively. Further, the values for the cAMP Rel EC50 (1% HSA) in assay [1], in assay [2] and in assay [3] were 55.3 nM, 328 nM and 1170 nM, respectively.

As for Y[Aib]QGT[αMePhe(2-F)]TSDYSKLLDKIAQK([AEEA-γGlu-C20 diacid])[Orn]FIEWLIEGGPSSGEPPPSEG-NH2 [Example 310], the Relative cAMP EC50 in assay [1] amounted to 0.0939 nM; in assay [2] it was 0.586 nM; in assay [3] it was 3.52 nM. Further, the cAMP Rel EC50 (1% HSA) in assay [1] turned out to be 15 nM; in assay [2], 177 nM; in assay [3], 4000 nM.

B1: Example 292 (peptide)
chain: YXQGTXTSDYSKXLDKKAQXQFIEYLEEGGPSSGEPPPSEG
modifications: synthetic construct; SITE 2: note = 2-Aminoisobutyric Acid; SITE 6: note = alpha-methyl-2-fluoro-L-phenylalanine; SITE 13: note = alpha-methyl-leucine; SITE 17: note = Lysine is chemically modified through conjugation of the epsilon-amino group of the Lysine side chain with (2-[2-(2-Amino-ethoxy)-et)
Consider B1, for which the values for the Relative cAMP EC50 in assay [1], in assay [2] and in assay [3] were 1.02 nM, 1.03 nM and 1.84 nM, respectively. Moreover, the cAMP Rel EC50 (in the presence of 1% HSA) stood at 92.7 nM in assay [1], 129 nM in assay [2] and 583 nM in assay [3].

Turning to Y[Aib]QGT[αMePhe(2-F)]TSDYSKLLDEIAQKAFIEYLLEGGPSSGEPPPSEG-NH2 (not fully specified (residue 20)) [Example 303], the values for the Relative cAMP EC50 in assay [1], in assay [2] and in assay [3] were 0.116 nM, 1.13 nM and 6.1 nM, respectively. For the same molecule, the cAMP Rel EC50 (1% HSA) was found to be 44.7 nM in assay [1], 257 nM in assay [2] and 9950 nM in assay [3].

For the molecule Y[Aib]QGTFTSDYSI[αMeL]LDKQAAK([AEEA-AEEA-γGlu-C20 diacid])QFVEWLIA[Aib]GPSSGEPPPSEG-NH2 [Example 326], the Relative cAMP EC50 stood at 0.3 nM in assay [1], 0.555 nM in assay [2] and 5.34 nM in assay [3]. Moreover, the cAMP Rel EC50 (1% HSA) in assay [1] amounted to 83.7 nM; in assay [2], 172 nM; in assay [3], 1500 nM.

Take Y[Aib]QGTFTSDYSI[αMeL]LDKIAAK([AEEA-AEEA-γGlu-C20 diacid])QFVEWLLA[Aib]GPSSGEPPPSEG-NH2 [Example 324]: the Relative cAMP EC50 worked out at 0.164 nM in assay [1], 4.4 nM in assay [2] and 5.74 nM in assay [3]. In addition, the cAMP Rel EC50 (1% HSA) was determined as 20.7 nM in assay [1], 1060 nM in assay [2] and 1410 nM in assay [3].

B2: Example 287 (peptide)
chain: YXQGTFTSDXSKXLDKKAQXAFIEYLIAXGESSGEPPPSGS
modifications: synthetic construct; SITE 2: note = 2-Aminoisobutyric Acid; SITE 10: note = 3-(4-Pyridyl)-L-alanine; SITE 13: note = alpha-methyl-leucine; SITE 17: note = Lysine is chemically modified through conjugation of the epsilon-amino group of the Lysine side chain with (2-[2-(2-Amino-ethoxy)-ethoxy]-acetyl)
B2: the Relative cAMP EC50 in assay [1] came out at 0.0633 nM; in assay [2], 4.25 nM; in assay [3], 2.53 nM. In addition, the cAMP Rel EC50 (in the presence of 1% HSA) in assay [1] came out at 9.94 nM; in assay [2] it was 562 nM; in assay [3], 291 nM.

As to Y[Aib]QGTFTSDYSI[αMeL]LDKQAAK([AEEA-AEEA-γGlu-C20 diacid])QFIEWLIEGGPSSGEPPPGEG-NH2 [Example 318], the Relative cAMP EC50 in assay [1] worked out at 0.378 nM; in assay [2], 0.698 nM; in assay [3] it was 5.03 nM. The cAMP Rel EC50 (1% HSA) in assay [1] stood at 52.8 nM; in assay [2], 111 nM; in assay [3], 1970 nM.

For Y[Aib]QGTFTSDYSI[αMeL]LDKQAAK([AEEA-AEEA-γGlu-C20 diacid])AFVEWLLA[Aib]GPSSGEPPPSEG-NH2 [Example 317], the figures for the Relative cAMP EC50 in assay [1], in assay [2] and in assay [3] were 0.474 nM, 1.32 nM and 2.42 nM, respectively. The figures for the cAMP Rel EC50 (1% HSA) in assay [1], in assay [2] and in assay [3] were 62.8 nM, 234 nM and 1500 nM, respectively.

On to Y[Aib]QGTFTSDYSI[αMeL]LDKIAAK([AEEA-AEEA-γGlu-C20 diacid])QFVEYLIAGGPSSGEPPPSEG-NH2 [Example 312], for which the results for the Relative cAMP EC50 in assay [1], in assay [2] and in assay [3] were 0.504 nM, 2.66 nM and 7.5 nM, respectively. For the same molecule, the cAMP Rel EC50 (1% HSA) in assay [1] came to 97.7 nM; in assay [2], 589 nM; in assay [3] it was 4070 nM.

As to Y[Aib]QGTFTSDYSI[αMeL]LDKQAAK([AEEA-AEEA-γGlu-C20 diacid])QFVNWLLA[Aib]GPSSGEPPPSEG-NH2 [Example 325], the Relative cAMP EC50 was determined as 0.351 nM in assay [1], 1.56 nM in assay [2] and 2.43 nM in assay [3]. In addition, the cAMP Rel EC50 (1% HSA) was determined as 82.7 nM in assay [1], 371 nM in assay [2] and 774 nM in assay [3].

As for [NMeY][Aib]QGT[αMeF]TSDYSILLDKIAAKAFIEYLIEGGPSSGEPPPSEG-NH2 (not fully specified (residue 20)) [Example 299], the Relative cAMP EC50 in assay [1] was found to be 0.137 nM; in assay [2], 0.963 nM; in assay [3], 2.54 nM. The cAMP Rel EC50 (1% HSA) came to 40.2 nM in assay [1], 380 nM in assay [2] and 1700 nM in assay [3].

Consider Y[Aib]QGTFTSDYSI[αMeL]LDKQAAK([AEEA-AEEA-γGlu-C20 diacid])QFIEWLIEGGPSSGEPPPGAE-NH2 [Example 319], for which the values for the Relative cAMP EC50 in assay [1], in assay [2] and in assay [3] were 0.485 nM, 0.947 nM and 4.81 nM, respectively. In addition, the cAMP Rel EC50 (1% HSA) in assay [1] came to 60.1 nM; in assay [2] it was 119 nM; in assay [3], 1650 nM.
